Article PMC12333375

Columns and labels:
[1] = target: AAV8 capsid (adeno-associated virus serotype 8 capsid) (adeno-associated virus serotype 8 (AAV8)) (UniProt Q8JQF8); test: native MS; orbitrap-based charge detection-mass spectrometry (CD-MS) of nSEC fraction F2 (capsid dimers), infused by CE with sheath liquid interface at about 80 nL/min, 200 mM ammonium acetate, nano ESI, triplicates
[2] = target: AAV8 capsid (adeno-associated virus serotype 8 capsid) (adeno-associated virus serotype 8 (AAV8)) (UniProt Q8JQF8); test: SEC-MALS; offline native SEC (AdvanceBio SEC 300 x 7.8 mm, 2.7 um, 500 A) with 20-angle MALS and DAD at 260 and 280 nm; 1:1 (v/v) mixture of empty and full AAV8 capsids; 200 mM ammonium acetate, 1.0 mL/min, 6 replicates; capsid dimer against capsid monomer by peak area

AAV8 capsid (adeno-associated virus serotype 8 capsid) (from UniProt Q8JQF8 1-738) (complex)
% empty capsid dimers (CD-MS) [1]: 1%
% filled capsid dimers (CD-MS) [1]: 3%
stoichiometry N [1]: 2
% AAV8 capsid dimer (peak area, absorbance at 260 nm) [2]: 0.9%
% AAV8 capsid dimer (peak area, absorbance at 280 nm) [2]: 1%
stoichiometry N [2]: 2
